Source: patent publication US20100310588A1

Molecular target: BDC2.5 T cell receptor (transgenic TCR alpha/beta of BDC2.5 TCR Tg mice) (mouse)
Test: cell-based or functional assay

p31-I-A^g7 multimer (recombinant MHC class II I-A^g7 presenting the BDC2.5 TCR mimotope peptide 1040-31) (peptide-MHC)
fold expansion of antigen-specific cells during the 10 day culture (lowest seeding, 0.001%): 5000 fold
